Measured values from patent US20250011454A1 (published 2025).
Residue numbers refer to the chain shown, from its start.

Experiments:
Assay in all cases: cell-based or functional assay
PSMA = PSMA (UniProt Q04609 44-750, limits assumed)
KLK2 [1] = target: T1, KLK2 (UniProt P20151 25-261, limits assumed)
KLK2 [2] = target: T1, KLK2; remark: listed apart in the source

Chain of PSMA (Q04609 44-750 limits assumed): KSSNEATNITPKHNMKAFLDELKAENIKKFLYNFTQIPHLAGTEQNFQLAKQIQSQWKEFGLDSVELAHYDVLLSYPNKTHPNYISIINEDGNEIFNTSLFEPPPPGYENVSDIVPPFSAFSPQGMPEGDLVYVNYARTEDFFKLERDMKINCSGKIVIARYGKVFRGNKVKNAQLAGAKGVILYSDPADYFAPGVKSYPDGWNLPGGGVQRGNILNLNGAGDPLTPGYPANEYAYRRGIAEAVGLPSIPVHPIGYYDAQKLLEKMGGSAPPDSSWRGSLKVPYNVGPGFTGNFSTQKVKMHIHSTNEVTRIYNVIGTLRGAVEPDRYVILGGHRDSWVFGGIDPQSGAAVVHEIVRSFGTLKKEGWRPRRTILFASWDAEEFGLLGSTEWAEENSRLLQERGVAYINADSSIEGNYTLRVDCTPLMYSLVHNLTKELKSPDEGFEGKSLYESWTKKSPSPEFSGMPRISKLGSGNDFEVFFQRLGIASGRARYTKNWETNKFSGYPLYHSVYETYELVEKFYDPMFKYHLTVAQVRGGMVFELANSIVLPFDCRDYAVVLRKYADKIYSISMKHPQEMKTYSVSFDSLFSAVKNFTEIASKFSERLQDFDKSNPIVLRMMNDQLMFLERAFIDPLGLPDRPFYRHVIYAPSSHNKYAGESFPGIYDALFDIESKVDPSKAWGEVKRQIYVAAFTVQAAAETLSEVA
T1 sequence (P20151 25-261 limits assumed): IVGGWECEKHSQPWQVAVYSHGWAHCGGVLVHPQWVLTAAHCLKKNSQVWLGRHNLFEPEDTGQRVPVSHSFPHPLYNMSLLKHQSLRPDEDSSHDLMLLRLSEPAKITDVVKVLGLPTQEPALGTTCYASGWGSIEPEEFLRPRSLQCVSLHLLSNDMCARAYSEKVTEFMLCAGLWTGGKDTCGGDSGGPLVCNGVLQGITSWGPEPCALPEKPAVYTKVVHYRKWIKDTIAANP

B1: PSMB952 (antibody, V domains shown)
VH: EVQLVESGGGLVQPGGSLRLSCAASGFTFSSYAMSWVRQAPGKGLEWVSAISGGIGSTYYADSVKGRFTISRDNSKNTLWLQMNSLRAEDTAVYYCAKDGVGATPYYFDYWGQGTLVTVSS
VL: QSVLTQPPSVSAAPGQKVTISCSGSSSNIGINYVSWYQQLPGTAPKLLIYDNNKRPSGIPDRFSGSKSGTSATLGITGLQTGDEADYYCGTWDSSLSAVVFGGGTKLTVL
PSMA
  In vitro ADCC killing EC50 (M), C42B cells, NK cells, 24 hour: 2.45e-11 M
  In vitro ADCC killing EC50 (M), C42B cells, PBMC, 6 hour: 3.51e-10 M
  In vitro ADCC killing EC50 (M), LNCaP cells, NK cells, 24 hour: 4.59e-11 M
  In vitro ADCC killing EC50 (M), LNCaP cells, PBMC, 6 hour: 2.01e-10 M

B2: PSMB956 (antibody, V domains shown)
VH: B1 VH with I55S, W80Y, T91S
VL: B1 VL
PSMA
  In vitro ADCC killing EC50 (M), C42B cells, NK cells, 24 hour: 9.96e-12 M
  In vitro ADCC killing EC50 (M), C42B cells, PBMC, 6 hour: 4.23e-10 M
  In vitro ADCC killing EC50 (M), LNCaP cells, NK cells, 24 hour: 3.58e-11 M
  In vitro ADCC killing EC50 (M), LNCaP cells, PBMC, 6 hour: 1.52e-10 M

B3: KL2B870 (antibody, human IgG1, kappa)
heavy: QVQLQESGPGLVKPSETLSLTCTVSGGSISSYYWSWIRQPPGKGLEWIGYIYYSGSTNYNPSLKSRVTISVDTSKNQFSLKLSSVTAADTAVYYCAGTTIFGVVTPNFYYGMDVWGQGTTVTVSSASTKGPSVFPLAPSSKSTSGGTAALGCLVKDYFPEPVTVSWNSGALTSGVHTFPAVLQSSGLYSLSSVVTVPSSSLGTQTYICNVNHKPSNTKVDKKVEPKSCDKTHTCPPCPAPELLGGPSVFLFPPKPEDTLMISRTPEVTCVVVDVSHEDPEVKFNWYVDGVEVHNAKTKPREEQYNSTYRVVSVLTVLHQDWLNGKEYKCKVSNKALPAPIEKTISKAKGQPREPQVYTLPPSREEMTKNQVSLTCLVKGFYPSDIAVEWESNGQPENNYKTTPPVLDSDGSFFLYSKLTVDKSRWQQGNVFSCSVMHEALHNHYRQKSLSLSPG
light: DIQMTQSPSFLSASVGDRVTITCRASQGISSYLAWYQQKPGKAPKFLIYAASTLQSGVPSRFSGSGSGTEFTLTISSLQPEDFATYYCQQLNSYPLTFGGGTKVEIKRTVAAPSVFIFPPSDEQLKSGTASVVCLLNNFYPREAKVQWKVDNALQSGNSQESVTEQDSKDSTYSLSSTLTLSKADYEKHKVYACEVTHQGLSSPVTKSFNRGEC
KLK2 [1]
  ADCC activity, cell killing of VCaP cells by PBMC: ~73%
KLK2 [2]
  EC50 (M), ADCC killing of VCaP cells by PBMC at 48 hour: 1e-09 M

B4: KL2B870.CLF (antibody, human IgG1, kappa)
heavy: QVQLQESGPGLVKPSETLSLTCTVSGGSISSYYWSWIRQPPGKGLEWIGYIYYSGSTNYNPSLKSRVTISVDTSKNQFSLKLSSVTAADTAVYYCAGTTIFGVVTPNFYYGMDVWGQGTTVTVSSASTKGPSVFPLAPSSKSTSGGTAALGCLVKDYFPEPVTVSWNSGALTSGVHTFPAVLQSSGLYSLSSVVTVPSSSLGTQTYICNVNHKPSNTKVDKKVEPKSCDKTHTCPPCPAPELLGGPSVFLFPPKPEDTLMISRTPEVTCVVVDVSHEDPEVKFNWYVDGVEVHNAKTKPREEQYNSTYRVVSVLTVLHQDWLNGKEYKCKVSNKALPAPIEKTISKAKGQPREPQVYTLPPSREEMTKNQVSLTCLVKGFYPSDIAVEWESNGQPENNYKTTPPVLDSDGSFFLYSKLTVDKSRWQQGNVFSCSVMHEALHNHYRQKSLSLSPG
light: B3 light
KLK2 [1]
  ADCC activity, cell killing of VCaP cells by PBMC: ~89%
KLK2 [2]
  EC50 (M), ADCC killing of VCaP cells by PBMC at 48 hour: 3.54e-10 M

B5: KL2B872.CLF (antibody, human IgG1, kappa)
heavy: not shown
light: B3 light
KLK2 [1]
  ADCC activity, cell killing of VCaP cells by PBMC: ~85%
KLK2 [2]
  EC50 (M), ADCC killing of VCaP cells by PBMC at 48 hour: 4.12e-10 M
